Experimental data reported in publication PMC10120048.

Target: Cytochrome bX
Test: native MS; 5 µM purified CytbX in 0.2 M ammonium acetate pH 8.0 with lauryldimethylamine oxide at 2x critical micelle concentration; Q-Exactive UHMR; dimer of the protein with itself

stoichiometry N: 2
Substance: Cytochrome bX
